Test system: Escherichia coli TOP10
Test: shrunken log2 fold change of peptide-encoding DNA abundance (4.5 h post-induction vs induction); higher = less antimicrobial activity (less host growth inhibition)
Conditions: time post-induction: 4.5 h; library: site-saturation at positions 5, 18, 19, 20
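Also: peptides expressed intracellularly from a pBAD plasmid library in pooled LB shake-flask culture, induced with 0.3% L-arabinose, DNA abundance read by NGS, three biological replicates, DESeq2 with apeglm shrinkage.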

| Sequence | shrunken log2 fold change |
| --- | --- |
| RRIRLRPPRLPRPRPRPGNHPRP | -0.267 |
| RRIRLRPPRLPRPRPRPGNNPRP | -0.58 |
| RRIRLRPPRLPRPRPRPGPPPRP | 0.445 |
| RRIRLRPPRLPRPRPRPGPYPRP | -0.215 |
| RRIRLRPPRLPRPRPRPGSGPRP | 0.337 |
| RRIRLRPPRLPRPRPRPGSIPRP | -0.301 |
| RRIRLRPPRLPRPRPRPGSRPRP | -0.183 |
| RRIRLRPPRLPRPRPRPGTGPRP | -0.0967 |
| RRIRLRPPRLPRPRPRPGVIPRP | -0.298 |
| RRIRLRPPRLPRPRPRPGWLPRP | 0.0878 |
| RRIRLRPPRLPRPRPRPGWWPRP | 0.155 |
| RRIRLRPPRLPRPRPRPGYPPRP | -0.361 |
| RRIRLRPPRLPRPRPRPHALPRP | -0.396 |
| RRIRLRPPRLPRPRPRPHCNPRP | -0.363 |
| RRIRLRPPRLPRPRPRPHCWPRP | 0.109 |
| RRIRLRPPRLPRPRPRPHDGPRP | 0.0171 |
| RRIRLRPPRLPRPRPRPHDMPRP | -0.117 |
| RRIRLRPPRLPRPRPRPHDVPRP | 0.0205 |
| RRIRLRPPRLPRPRPRPHEWPRP | -0.0141 |
| RRIRLRPPRLPRPRPRPHHTPRP | -0.558 |
| RRIRLRPPRLPRPRPRPHIAPRP | -0.205 |
| RRIRLRPPRLPRPRPRPHKKPRP | -0.163 |
| RRIRLRPPRLPRPRPRPHLRPRP | -0.151 |
| RRIRLRPPRLPRPRPRPHPDPRP | -0.111 |
| RRIRLRPPRLPRPRPRPHRCPRP | -0.0644 |

| Sequence | shrunken log2 fold change |
| --- | --- |
| RRIRLRPPRLPRPRPRPHSIPRP | -0.191 |
| RRIRLRPPRLPRPRPRPHSRPRP | -0.0563 |
| RRIRLRPPRLPRPRPRPHTVPRP | -0.267 |
| RRIRLRPPRLPRPRPRPHVAPRP | 0.0259 |
| RRIRLRPPRLPRPRPRPHVSPRP | 0.00444 |
| RRIRLRPPRLPRPRPRPHVYPRP | -0.211 |
| RRIRLRPPRLPRPRPRPHWDPRP | 0.176 |
| RRIRLRPPRLPRPRPRPHWFPRP | -0.08 |
| RRIRLRPPRLPRPRPRPHYWPRP | -0.356 |
| RRIRLRPPRLPRPRPRPIAPPRP | 0.372 |
| RRIRLRPPRLPRPRPRPIAQPRP | -0.0527 |
| RRIRLRPPRLPRPRPRPICNPRP | -0.243 |
| RRIRLRPPRLPRPRPRPIDAPRP | 0.206 |
| RRIRLRPPRLPRPRPRPIDWPRP | -0.00448 |
| RRIRLRPPRLPRPRPRPIEDPRP | 0.0562 |
| RRIRLRPPRLPRPRPRPIFGPRP | 0.0171 |
| RRIRLRPPRLPRPRPRPIFIPRP | 0.606 |
| RRIRLRPPRLPRPRPRPIIIPRP | -0.302 |
| RRIRLRPPRLPRPRPRPIIKPRP | -0.527 |
| RRIRLRPPRLPRPRPRPIIYPRP | -0.196 |
| RRIRLRPPRLPRPRPRPILFPRP | -0.0559 |
| RRIRLRPPRLPRPRPRPIMVPRP | -0.117 |
| RRIRLRPPRLPRPRPRPIMYPRP | -0.16 |
| RRIRLRPPRLPRPRPRPINMPRP | -0.482 |
| RRIRLRPPRLPRPRPRPINVPRP | -0.54 |

| Sequence | shrunken log2 fold change |
| --- | --- |
| RRIRLRPPRLPRPRPRPIPFPRP | -0.0242 |
| RRIRLRPPRLPRPRPRPIPTPRP | -0.105 |
| RRIRLRPPRLPRPRPRPIQRPRP | -0.00804 |
| RRIRLRPPRLPRPRPRPIRAPRP | 0.301 |
| RRIRLRPPRLPRPRPRPIRFPRP | -0.185 |
| RRIRLRPPRLPRPRPRPISQPRP | -0.135 |
| RRIRLRPPRLPRPRPRPITFPRP | 0.0415 |
| RRIRLRPPRLPRPRPRPITKPRP | 0.00247 |
| RRIRLRPPRLPRPRPRPIYWPRP | -0.0187 |
| RRIRLRPPRLPRPRPRPKAIPRP | 0.0195 |
| RRIRLRPPRLPRPRPRPKASPRP | -0.231 |
| RRIRLRPPRLPRPRPRPKDEPRP | 0.114 |
| RRIRLRPPRLPRPRPRPKEKPRP | -0.0145 |
| RRIRLRPPRLPRPRPRPKGFPRP | -0.109 |
| RRIRLRPPRLPRPRPRPKHHPRP | -0.296 |
| RRIRLRPPRLPRPRPRPKHLPRP | -0.364 |
| RRIRLRPPRLPRPRPRPKPGPRP | 0.396 |
| RRIRLRPPRLPRPRPRPKPPPRP | 0.586 |
| RRIRLRPPRLPRPRPRPKRFPRP | 0.104 |
| RRIRLRPPRLPRPRPRPKRLPRP | -0.0581 |
| RRIRLRPPRLPRPRPRPKSQPRP | 0.00795 |
| RRIRLRPPRLPRPRPRPKSRPRP | -0.176 |
| RRIRLRPPRLPRPRPRPKWCPRP | 0.0847 |
| RRIRLRPPRLPRPRPRPKWLPRP | 0.139 |
| RRIRLRPPRLPRPRPRPKYCPRP | 0.0654 |
